Test results: the DeepSol protein solubility set

assay: soluble on expression in E. coli; label from the status in PepcDB or PDB records

Sequence	soluble on expression in E. coli
MMEVRINKFLSEAGVASRRKAEKLILEGRVKVNGEVVRSLGVKVNPEVDIVEVDGKPVKPQRKRYIILNKPCCYLTQLGRSPDGRKTIEELIKDIPERVFPVGRLDYNTEGLLILTNDGELANRILHPRYKLPKVYLALVEGKVDQKTLKRMKQGIELEDGFAKPDNIRIVRYEGKNTLLEITFHEGRKHLVKRFLGAFGHKVKRLKRIAIGPIKLGKLSPGKWRELNQGELAQLFKAVGLKYVPRKRRLEHHHHHH	soluble
MGSDKIHHHHHHMNSINKNQPEKNHEDLKNKDSIDKIIELASDQTCFLCTTQGAKGNARPMAVQKVDKQGNIWFLSASDSNQNKEIQENSSVNLYFKGNQHSDFMHLYGEATVLRDETIIKELWNPVLKTWFTEGENDPRITIIKFTTKEGYYWDTKHGNFIAGIKMLIGAATGQTLDDSIEGSLQNQPVHNTHISHG	not soluble
MSLAFYIATFDIGTTEVKAALADRDGGLHFQRSIALETYGDGNGPVEQDAGDWYDAVQRIASSWWQSGVDARRVSAIVLSGQMQNFLPLDQDHEPLHRAVLYSDKRPLKEAEEINARHGADNLWSALENPMTAASILPKLVFWRASFPQAFGRLRHVVLGAKDYVVLRLTGRHATDRTNASTTGLYRPKDDAWHVELLADYGFSLDLMPRLLEPGEQVGGVSALAARQTGFVSGTPVLCGLGDAGAATLGVGVLDDEDAYLHLGTTGWLARLTQTDPVGDMPVGTIFRLAGIIAGKTLQVAPVLNAGNILQWALTLVGHRPGEDCAEYFHMAAAEVQGVTVPDGLLFVPYLHAERCPVELPAPRGALLGVTGATTRAQILLAVLEGAALSLRWCAELLGMEKVGLLKVVGGGARSEAWLRMIADNLNVSLLVKPDAHLHPLRGLAALAAVELEWSHSIQDFLREADLREPASNILHPQPCDEGRRRRKFERFKQCVETLGRLDEGHHHHHH	soluble
MVVSIITPLYKVEDFIARCADSLFRQSYTEIEYIFVDDCSSDRSVEVLLQVAERYPQLQQQIRILHHESNRGVAAARETGLAAATGEYVYWVDADDWIEPDAIEKMVVRSEQGQKDIIACGWYLCFRQNERRMPMPCYADAETALRGMLSGTMRWNLWLYMIKRDLYLMNDIHFMEGENVGEDMLVLIKLFSHAKSIGFVKDAFYHYVKQNENSLTRLSPEQQMKRQMRNLQAATDYLVTHFIGKYEKEINFFKLNAKMPLLISNDKNSYRTWTACFPEANKYIMANKRQTLRMRLVQLMAAKRQFWLVELYYQLVFKFVYGILYK	not soluble
MGSSHHHHHHSSGLVPRGSHMKKRIGIVGAGTAGLHLGLFLRQHDVDVTVYTDRKPDEYSGLRLLNTVAHNAVTVQREVALDVNEWPSEEFGYFGHYYYVGGPQPMRFYGDLKAPSRAVDYRLYQPMLMRALEARGGKFCYDAVSAEDLEGLSEQYDLLVVCTGKYALGKVFEKQSENSPFEKPQRALCVGLFKGIKEAPIRAVTMSFSPGHGELIEIPTLSFNGMSTALVLENHIGSDLEVLAHTKYDDDPRAFLDLMLEKLGKHHPSVAERIDPAEFDLANSSLDILQGGVVPAFRDGHATLNNGKTIIGLGDIQATVDPVLGQGANMASYAAWILGEEILAHSVYDLRFSEHLERRRQDRVLCATRWTNFTLSALSALPPEFLAFLQILSQSREMADEFTDNFNYPERQWDRFSSPERIGQWCSQFA	soluble
MNEKWIVERAEREGGRLWLYVNDAPVPLARVTPKRHMLVDSDALAFAYILETDDRFLYVMVPKLWWPELKAALDAEEPVWLRCGERTLELEQFHDELSYLLENIRGNANYGEALEQAVQDVFFEQ	not soluble
MSLSDKHIKQTVLNSNDNRISPSHVCDIFLPQNGLSERWKAFTRRRFVIAETGFGTGLSFLTACQQFTQFRQANPTATVKELHFISFEQHPLTKSDLIKATEKWPEFAHFSQQLHAHYPPAVSDCHRIVLDEGLITLDLWFGNITDSMPQVWTNDDGIVDAWFTDGFATESNAALLKSLTIINSIAILARENSTIHAITYHQGNQQDVLEQSLTEAGFDMTESHNEGHHHHHH	soluble
MITNDHDRRKQISVRGIAQVENVSNIKKAFNRHLHFSIIKDRNVATDRDYYFALANTVRDHLVSRWIRTQQHYYDKDPKRVYYLSLEFYMGRTLSNTMMNLGIQATVDEALYQLGLDIEELQEIEEDAGLGNGGLGRLAACFLDSMATLGIPAYGYGLRYEYGIFKQLIRDGWQIEEPDDWLRFGNPWEKARPEYMLPVNFYGKVVKEDGKSKWIDTQVVFAMPYDTPVPGYKNNIVNTLRLWSAKAENHFHLKFFNDGDYVQAVMDRNLSENITRVLYPNDNMFLGKELRLKQQYFLVAATLQDIIRRFKSSIYGNREAVRVNFETFPDKVAIQLNDTHPSIGIPELIRLLIDVEGLTWDQAWDICIKTYAYTNHTLLPEALERWPVSLMQNLLPRHLEIIYEINQKFMNTISQRFPGDFDRMRRMSIVEEADQFGEKRINMAHLCIVASHAINGVAALHSDLLKSSTFRDFYEFYPDRFQNKTNGITPRRWLLLSNPSLADLIVEKIGESWITNLDELQKLKEYANDAGFLDSIRRVKLENKQQVAQYLSDEYNVNVNAASLFDVHVKRIHEYKRQLLNILHVIALYNRIKENPNIDMVKRTVLYGGKAAPGYHMAKQIIRLITAVAEQVNNDAIVGDRLKVIFLENYRVSMAEKIIPASDLSEQISTAGTEASGTGNMKFMLNGALTIGTLDGANVEMAEEMGDENIFIFGMNVEEVEALTKRGYSSQEFIDKSPMLKQIIEQIEGGMFTPEDPDQLKDLSNMLRYHDRFMVCADFDAFIEAQDKVSATFRDQEKWSRMALYNIASTGKFSTDRTITEYAREIWGIDQFESSLPAPYENEKSE	not soluble
MGHHHHHHSHMLFIDNQNINDPRINLAIEEYCVKHLDPEQQYLLFYVNQPSIIIGKNQNTIEEINTKYVEENGIIVVRRLSGGGAVYHDLGNLNFSFITKDDGDSFHNFKKFTEPVIQALHQLGVEAELSGRNDIVVDGRKISGNAQFATKGRIFSHGTLMFDSAIDHVVSALKVKKDKIESKGIKSIRSRVANISEFLDDKMTTEEFRSHLLRHIFNTNDVGNVPEYKLTEKDWETIHQISKERYQNWDWNYGRSPKFNLNHSKRYPVGSIDLHLEVKKGKIEDCKIFGDFFGVGDVSEIENLLVGKQYERSVIADVLEGVNLKHYFGNITKEDFLDLIY	not soluble
MLYLTQRLEIPAAATASVTLPIDVRVKSRVKVTLNDGRDAGLLLPRGLLLRGGDVLSNEEGTDFVQVIAADEEVSVVRCDDPFMLAKACYALGNRHVPLQIMPGELRYHHDHVLDDMLRQFGLTVTFGQLPFEPEAGAYASES	soluble
AHHHHHHGSSLGGSADDTYLHEIIKKAYEAGIVIVAAAGNEGASSPSYPAAYPEVIAVGATDINDQVPYWSNRQPEVSAPGVDILSTYPDDTYETLSGTSMATPHVSGVVALIQAAYYLKYGKVLPVGTFDDMSTNTVRGILHLAVDDLGDPGWDIYYGYGIIRADKAIQLALF	not soluble
MGSDKIHHHHHHVRALVVSVDNTARREGDTGRRVGMQPPEPPFPHNEKESTAVNFKEMQATLMHELRLYHYPVAVKFFFDQAEVDKFKAETEYYTPLKAMTFCQWQIAARMKGQTVYSEREGLGCSNAVFSFGWKDLDEAEVKSHAKYCKDLDQAKRFVETKSRLPEGLIGIAVAPLADATFMPDTVHFYCDNMQAYHLAVDYMAATDTHPLRPQITMNSSACGGNVYTMVEKQFNMLPACSGSYNAGKTERGEINVIIPGEQMQMVYERLLERMEKLGSSSITKPGDGFPGADVCKNCPLIVFKKAKD	not soluble
MRECISIHVGQAGVQIGNACWELYCLEHGIQPDGQMPSDKTIGGGDDSFNTFFSETGAGKHVPRAVFVDLEPTVIDEVRTGTYRQLFHPEQLITGKEDAANNYARGHYTIGKEIIDLVLDRIRKLADQCTGLQGFSVFHSFGGGTGSGFTSLLMERLSVDYGKKSKLEFSIYPAPQVSTAVVEPYNSILTTHTTLEHSDCAFMVDNEAIYDICRRNLDIERPTYTNLNRLIGQIVSSITASLRFDGALNVDLTEFQTNLVPYPRAHFPLATYAPVISAEKAYHEQLSVAEITNACFEPANQMVKCDPRHGKYMACCLLYRGDVVPKDVNAAIATIKTKRTIQFVDWCPTGFKVGINYEPPTVVPGGDLAKVQRAVCMLSNTTAIAEAWARLDHKFDLMYAKRAFVHWYVGEGMEEGEFSEAREDMAALEKDYEEVGVDSVEGEGEEEGEEY	soluble
